Data: paper PMC10266124 (mAbs, 2023)

B1: mAb21 (S2A4) (antibody, V domains shown)
VH: EVQLVESGGGLVQPGGSLRLSCAASGFTFSSYWMNWVRQAPGKGLEWVANIKQDGSEKYYVDSVKGRFTISRDNAKNSLFLQMNSLRAEDTAVYYCARVWWLRGSFDYWGQGTLVTVSS
VL: NFMLTQPHSVSESPGKTVTISCTGSSGSIASNYVQWYQQRPGSAPTTVIYEDNQRPSGVPDRFSGSIDSSSNSASLTISGLKTEDEADYYCQSYDSSNHVVFGGGTKLTVL
B2: mAb27 (H014) (antibody, V domains shown)
VH: EVQLVQSGAEVKKPGATVKISCKVSGYSFSNYYIHWVKQAPGKSLEWIGYIDPFNGGTSDNLKFKGAATLTADTSTDTAYMELSSLRSEDTAVYYCARSEYDPYYVMDYWGQGTTVTVSS
VL: IVLTQSPFQSVSPKEKVTITCRASQSISSNLHWYQQKPDQSPKLLIKYASQSISGIPSRFSGSGSGTDFTLTINSLEAEDFGIYFCQQTNFWPYIFGQGTKLEIL
B3: mAb03 (imdevimab) (antibody, V domains shown)
VH: QVQLVESGGGVVQPGRSLRLSCAASGFTFSNYAMYWVRQAPGKGLEWVAVISYDGSNKYYADSVKGRFTISRDNSKNTLYLQMNSLRTEDTAVYYCASGSDYGDYLLVYWGQGTLVTVSS
VL: QSALTQPASVSGSPGQSITISCTGTSSDVGGYNYVSWYQQHPGKAPKLMIYDVSKRPSGVSNRFSGSKSGNTASLTISGLQSEDEADYYCNSLTSISTWVFGGGTKLTVL
B4: mAb26 (4A8) (antibody, V domains shown)
VH: EVQLVESGAEVKKPGASVKVSCKVSGYTLTELSMHWVRQAPGKGLEWMGGFDPEDGETMYAQKFQGRVTMTEDTSTDTAYMELSSLRSEDTAVYYCATSTAVAGTPDLFDYYYGMDVWGQGTTVTVSS
VL: EIVMTQSPLSSPVTLGQPASISCRSSQSLVHSDGNTYLSWLQQRPGQPPRLLIYKISNRFSGVPDRFSGSGAGTDFTLKISRVEAEDVGVYYCTQATQFPYTFGQGTKVDIK

Key:
Assay in all cases: electrochemiluminescence
[1] = target: SARS-CoV-2 spike protein, Delta *1 (B.1.617.2; AY.4) (SARS-CoV-2, Delta B.1.617.2; AY.4 …, L452R)
[2] = target: SARS-CoV-2 spike protein, Delta *2 (B.1.617.2; AY.4.2) (SARS-CoV-2, Delta B.1.617.2; AY.4.2 …, L452R)
[3] = target: SARS-CoV-2 spike protein, Delta *3 (B.1.617.2; AY.3; AY.5; AY.6; AY.7; AY.14) (SARS-CoV-2, Delta (B.1.617.2; AY.3; …, L452R)
[4] = target: SARS-CoV-2 spike protein, Gamma (P.1) (SARS-CoV-2, Gamma (P.1), E484K)

Row | Binder | relative binding (% of that to Wuhan spike, from AUCs) [1] | relative binding (% of that to Wuhan spike, from AUCs) [2] | relative binding (% of that to Wuhan spike, from AUCs) [3] | relative binding (% of that to Wuhan spike, from AUCs) [4]
1 | B1 | > 80% | > 80% | > 80% | 
2 | B2 | > 80% | > 80% | > 80% | 
3 | B3 | > 80% | > 80% | > 80% | 
4 | B4 |  |  |  | ≥ 20%
